This passage reports Kd results from PMC12177071, “Divergence in a eukaryotic transcription factor’s co-TF dependence involves multiple intrinsically disordered regions”.

For data set [1], the target named is T1, CgPho4 DBD (Candida glabrata, UniProt Q6FVW0 452-533).
T1 sequence: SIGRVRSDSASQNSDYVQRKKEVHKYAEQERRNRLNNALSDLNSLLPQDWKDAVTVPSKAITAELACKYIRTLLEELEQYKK
Description: EMSA; 5 mM MgCl2, 1 mM EDTA; 4 C; BLI: 1x PBS pH 7.4, 0.01% BSA, 0.002% Tween-20, 0.005% sodium azide, 30 C; EMSA: 20 mM Tris-HCl pH 8, 150 mM KCl, 10% glycerol, 5 mM MgCl2, 1 mM EDTA, 1 mM DTT, 4 C. The note with it: protein: recombinant; tags: C-terminal 6xHis; chain copies: 2; label: IR700; blunt.

Data set [2] deals with T2, ScPho4 DBD (Saccharomyces cerevisiae, UniProt P07270 236-312).
T2 sequence: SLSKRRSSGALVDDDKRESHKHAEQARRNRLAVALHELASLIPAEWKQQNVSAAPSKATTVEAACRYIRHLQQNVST
The description is as above. To be noted: protein: recombinant; tags: C-terminal 6xHis; chain copies: 2; label: IR700; blunt.

Data set [3] addresses T1, CgPho4 DBD. As to the kind of experiment: BLI; mean of 5 replicates; 30 C; BLI: 1x PBS pH 7.4, 0.01% BSA, 0.002% Tween-20, 0.005% sodium azide, 30 C; EMSA: 20 mM Tris-HCl pH 8, 150 mM KCl, 10% glycerol, 5 mM MgCl2, 1 mM EDTA, 1 mM DTT, 4 C. The note with it: protein: recombinant; tags: C-terminal 6xHis; chain copies: 2; blunt. In general terms: BLI is a label-free optical method that tracks binding on a fibre tip over time.

Data set [4] concerns the target T2, ScPho4 DBD. The data set is described as above. The note with it: protein: recombinant; tags: C-terminal 6xHis; chain copies: 2; blunt.

As usually defined, the Kd is the constant that tells how readily two partners part at equilibrium.

B1: 17-bp consensus E-box, EMSA probe (dsDNA)
DNA 1: CTAGTCCCACGTGTGAG
DNA 2: CTCACACGTGGGACTAG
B1: the Kd in data set [1] turned out to be 1.9 nM; in data set [2], 5.5 nM.

B2: 17-bp consensus E-box, BLI probe (dsDNA)
DNA 1: CTAGTCCCACGTGTGAG
DNA 2: CTCACACGTGGGACTAG
For the molecule B2, the values for the dissociation constant Kd in data set [3] and in data set [4] were 1.2 nM and 5.2 nM, respectively.
